Experimental data as given in patent publication US7262289 (Bristol-Myers Squibb, dated 2007).

Target: T1, human KCNQ3/KvLR2 (human, UniProt O43525 25-872)
T1 sequence: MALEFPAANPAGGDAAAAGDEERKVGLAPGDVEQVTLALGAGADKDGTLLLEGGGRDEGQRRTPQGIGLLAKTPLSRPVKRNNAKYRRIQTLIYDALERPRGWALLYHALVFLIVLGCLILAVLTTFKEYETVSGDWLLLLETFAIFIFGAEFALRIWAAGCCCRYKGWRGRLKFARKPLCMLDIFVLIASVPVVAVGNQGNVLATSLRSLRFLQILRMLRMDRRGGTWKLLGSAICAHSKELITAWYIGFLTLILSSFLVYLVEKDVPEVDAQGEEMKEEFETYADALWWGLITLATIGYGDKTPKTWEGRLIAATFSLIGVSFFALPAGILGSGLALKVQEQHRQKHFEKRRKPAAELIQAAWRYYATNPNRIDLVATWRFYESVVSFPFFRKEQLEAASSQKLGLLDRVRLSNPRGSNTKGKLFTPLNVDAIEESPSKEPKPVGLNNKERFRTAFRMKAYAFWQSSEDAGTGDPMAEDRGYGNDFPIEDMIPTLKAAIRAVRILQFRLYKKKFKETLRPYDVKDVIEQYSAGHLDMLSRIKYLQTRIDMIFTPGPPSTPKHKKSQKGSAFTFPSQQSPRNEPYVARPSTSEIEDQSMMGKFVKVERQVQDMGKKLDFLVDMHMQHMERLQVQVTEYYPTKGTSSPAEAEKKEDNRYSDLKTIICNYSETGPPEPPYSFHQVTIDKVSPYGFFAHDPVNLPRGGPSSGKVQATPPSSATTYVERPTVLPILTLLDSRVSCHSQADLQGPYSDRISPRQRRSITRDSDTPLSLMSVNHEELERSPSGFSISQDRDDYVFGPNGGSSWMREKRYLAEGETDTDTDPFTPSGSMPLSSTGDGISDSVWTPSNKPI
Assay: cell-based or functional assay

current amplitude in oocytes co-expressing KCNQ2 and KCNQ3 against oocytes injected with each channel alone (two-electrode voltage clamp): 15 fold
shift of tail current reversal potential per 10-fold change in external K+ for KCNQ2+KCNQ3: 57 mV
B1: human KCNQ2/KvLR1 (other)
chain: MVQKSRNGGVYPGPSGEKKLKVGFVGLDPGAPDSTRDGALLIAGSEAPKRGSILSKPRAGGAGAGKPPKRNAFYRKLQNFLYNVLERPRGWAFIYHAYVFLLVFSCLVLSVFSTIKEYEKSSEGALYILEIVTIVVFGVEYFVRIWAAGCCCRYRGWRGRLKFARKPFCVIDIMVLIASIAVLAAGSQGNVFATSALRSLRFLQILRMIRMDRRGGTWKLLGSVVYAHSKELVTAWYIGFLCLILASFLVYLAEKGENDHFDTYADALWWGLITLTTIGYGDKYPQTWNGRLLAATFTLIGVSFFALPAGILGSGFALKVQEQHRQKHFEKRRNPAAGLIQSAWRFYATNLSRTDLHSTWQYYERTVTVPMYSSQTQTYGASRLIPPLNQLELLRNLKSKSGLAFRKDPPPEPSPSKGSPCRGPLCGCCPGRSSQKVSLKDRVFSSPRGVAAKGKGSPQAQTVRRSPSADQSLEDSPSKVPKSWSFGDRSRARQAFRIKGAASRQNSEASLPGEDIVDDKSCPCEFVTEDLTPGLKVSIRAVCVMRFLVSKRKFKESLRPYDVMDVIEQYSAGHLDMLSRIKSLQSRVDQIVGRGPAITDKDRTKGPAEAELPEDPSMMGRLGKVEKQVLSMEKKLDFLVNIYMQRMGIPPTETEAYFGAKEPEPAPPYHSPEDSREHVDRHGCIVKIVRSSSSTGQKNFSAPPAAPPVQCPPSTSWQPQSHPRQGHGTSPVGDHGSLVRIPPPPAHERSLSAYGGGNRASMEFLRQEDTPGCRPPEGTLRDSDTSISIPSVDHEELERSFSGFSISQSKENLDALNSCYAAVAPCAKVRPYIAEGESDTDSDLCTPCGPPPRSATGEGPFGDVGWAGPRK
